Here are results for six variants from IntAct's records for PubMed 29892012.

Sequences and labels used below:
B1: Vasculin (Homo sapiens), Q86WP2 (parent)
chain: MAQHDFAPAWLNFPTPPSSTKSSLNFEKHSENFAWTENRYDVNRRRHNSSDGFDSAIGRPNGGNFGRKEKNGWRTHGRNGTENINHRGGYHGGSSRSRSSIFHAGKSQGLHENNIPDNETGRKEDKRERKQFEAEDFPSLNPEYEREPNHNKSLAAGVWEYPPNPKSRAPRMLVIKKGNTKDLQLSGFPVVGNLPSQPVKNGTGPSVYKGLVPKPAAPPTKPTQWKSQTKENKVGTSFPHESTFGVGNFNAFKSTAKNFSPSTNSVKECNRSNSSSPVDKLNQQPRLTKLTRMRTDKKSEFLKALKRDRVEEEHEDESRAGSEKDDDSFNLHNSNSTHQERDINRNFDENEIPQENGNASVISQQIIRSSTFPQTDVLSSSLEAEHRLLKEMGWQEDSENDETCAPLTEDEMREFQVISEQLQKNGLRKNGILKNGLICDFKFGPWKNSTFKPTTENDDTETSSSDTSDDDDV
partner: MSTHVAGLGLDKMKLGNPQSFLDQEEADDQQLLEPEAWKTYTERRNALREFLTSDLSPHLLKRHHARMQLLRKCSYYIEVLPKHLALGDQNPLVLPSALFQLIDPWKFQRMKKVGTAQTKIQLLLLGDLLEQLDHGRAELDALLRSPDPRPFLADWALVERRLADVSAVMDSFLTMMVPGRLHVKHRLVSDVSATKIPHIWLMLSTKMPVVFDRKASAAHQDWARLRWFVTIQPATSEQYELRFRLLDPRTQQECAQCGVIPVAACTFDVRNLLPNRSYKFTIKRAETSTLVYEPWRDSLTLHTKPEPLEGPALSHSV
B2: Ubiquitin domain-containing protein 2 (Homo sapiens), Q8WUN7 (parent)
chain: MGGCVGAQHDSSGSLNENSEGTGVALGRNQPLKKEKPKWKSDYPMTDGQLRSKRDEFWDTAPAFEGRKEIWDALKAAAHAFESNDHELAQAIIDGANITLPHGALTECYDELGNRYQLPVYCLAPPINMIEEKSDIETLDIPEPPPNSGYECQLRLRLSTGKDLKLVVRSTDTVFHMKRRLHAAEGVEPGSQRWFFSGRPLTDKMKFEELKIPKDYVVQVIVSQPVQNPTPVEN
partner: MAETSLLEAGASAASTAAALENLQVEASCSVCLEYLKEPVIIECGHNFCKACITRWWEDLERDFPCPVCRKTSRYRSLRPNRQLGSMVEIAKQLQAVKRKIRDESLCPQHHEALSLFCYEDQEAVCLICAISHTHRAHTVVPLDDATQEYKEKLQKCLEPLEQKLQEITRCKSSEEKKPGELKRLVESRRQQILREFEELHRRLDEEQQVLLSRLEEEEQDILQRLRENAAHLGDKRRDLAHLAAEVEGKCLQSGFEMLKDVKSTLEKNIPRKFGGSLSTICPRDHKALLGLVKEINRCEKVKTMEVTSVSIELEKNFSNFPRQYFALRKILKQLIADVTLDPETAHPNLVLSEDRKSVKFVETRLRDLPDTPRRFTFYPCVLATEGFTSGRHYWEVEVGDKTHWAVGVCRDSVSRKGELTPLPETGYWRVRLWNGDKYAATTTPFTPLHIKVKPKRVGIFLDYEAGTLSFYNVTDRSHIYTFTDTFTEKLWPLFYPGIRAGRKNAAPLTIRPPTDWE
B3: Small glutamine-rich tetratricopeptide repeat-containing protein beta (Homo sapiens), Q96EQ0 (parent)
chain: MSSIKHLVYAVIRFLREQSQMDTYTSDEQESLEVAIQCLETVFKISPEDTHLAVSQPLTEMFTSSFCKNDVLPLSNSVPEDVGKADQLKDEGNNHMKEENYAAAVDCYTQAIELDPNNAVYYCNRAAAQSKLGHYTDAIKDCEKAIAIDSKYSKAYGRMGLALTALNKFEEAVTSYQKALDLDPENDSYKSNLKIAEQKLREVSSPTGTGLSFDMASLINNPAFISMAASLMQNPQVQQLMSGMMTNAIGGPAAGVGGLTDLSSLIQAGQQFAQQIQQQNPELIEQLRNHIRSRSFSSSAEEHS
partner: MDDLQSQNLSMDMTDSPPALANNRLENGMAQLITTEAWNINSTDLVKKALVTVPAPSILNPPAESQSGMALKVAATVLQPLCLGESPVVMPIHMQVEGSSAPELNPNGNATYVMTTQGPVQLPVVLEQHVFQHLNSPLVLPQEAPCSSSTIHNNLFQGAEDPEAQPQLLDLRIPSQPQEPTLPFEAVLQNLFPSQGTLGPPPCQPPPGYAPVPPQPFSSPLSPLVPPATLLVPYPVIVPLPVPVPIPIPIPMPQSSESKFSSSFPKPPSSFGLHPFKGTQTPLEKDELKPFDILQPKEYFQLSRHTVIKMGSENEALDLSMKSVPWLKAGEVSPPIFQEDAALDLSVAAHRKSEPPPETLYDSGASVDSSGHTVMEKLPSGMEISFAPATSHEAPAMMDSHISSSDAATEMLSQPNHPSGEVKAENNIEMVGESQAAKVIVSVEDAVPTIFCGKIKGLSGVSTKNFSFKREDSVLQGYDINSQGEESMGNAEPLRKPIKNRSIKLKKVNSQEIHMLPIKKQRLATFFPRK
B4: Ras GTPase-activating protein-binding protein 2 (Homo sapiens), Q9UN86 (parent)
chain: MVMEKPSPLLVGREFVRQYYTLLNKAPEYLHRFYGRNSSYVHGGVDASGKPQEAVYGQNDIHHKVLSLNFSECHTKIRHVDAHATLSDGVVVQVMGLLSNSGQPERKFMQTFVLAPEGSVPNKFYVHNDMFRYEDEVFGDSEPELDEESEDEVEEEQEERQPSPEPVQENANSGYYEAHPVTNGIEEPLEESSHEPEPEPESETKTEELKPQVEEKNLEELEEKSTTPPPAEPVSLPQEPPKAFSWASVTSKNLPPSGTVSSSGIPPHVKAPVSQPRVEAKPEVQSQPPRVREQRPRERPGFPPRGPRPGRGDMEQNDSDNRRIIRYPDSHQLFVGNLPHDIDENELKEFFMSFGNVVELRINTKGVGGKLPNFGFVVFDDSEPVQRILIAKPIMFRGEVRLNVEEKKTRAARERETRGGGDDRRDIRRNDRGPGGPRGIVGGGMMRDRDGRGPPPRGGMAQKLGSGRGTGQMEGRFTGQRR
B5: E3 ubiquitin-protein ligase LNX (Homo sapiens), Q8TBB1 (parent)
chain: MNQPESANDPEPLCAVCGQAHSLEENHFYSYPEEVDDDLICHICLQALLDPLDTPCGHTYCTLCLTNFLVEKDFCPMDRKPLVLQHCKKSSILVNKLLNKLLVTCPFREHCTQVLQRCDLEHHFQTSCKGASHYGLTKDRKRRSQDGCPDGCASLTATAPSPEVSAAATISLMTDEPGLDNPAYVSSAEDGQPAISPVDSGRSNRTRARPFERSTIRSRSFKKINRALSVLRRTKSGSAVANHADQGRENSENTTAPEVFPRLYHLIPDGEITSIKINRVDPSESLSIRLVGGSETPLVHIIIQHIYRDGVIARDGRLLPGDIILKVNGMDISNVPHNYAVRLLRQPCQVLWLTVMREQKFRSRNNGQAPDAYRPRDDSFHVILNKSSPEEQLGIKLVRKVDEPGVFIFNVLDGGVAYRHGQLEENDRVLAINGHDLRYGSPESAAHLIQASERRVHLVVSRQVRQRSPDIFQEAGWNSNGSWSPGPGERSNTPKPLHPTITCHEKVVNIQKDPGESLGMTVAGGASHREWDLPIYVISVEPGGVISRDGRIKTGDILLNVDGVELTEVSRSEAVALLKRTSSSIVLKALEVKEYEPQEDCSSPAALDSNHNMAPPSDWSPSWVMWLELPRCLYNCKDIVLRRNTAGSLGFCIVGGYEEYNGNKPFFIKSIVEGTPAYNDGRIRCGDILLAVNGRSTSGMIHACLARLLKELKGRITLTIVSWPGTFL
partner: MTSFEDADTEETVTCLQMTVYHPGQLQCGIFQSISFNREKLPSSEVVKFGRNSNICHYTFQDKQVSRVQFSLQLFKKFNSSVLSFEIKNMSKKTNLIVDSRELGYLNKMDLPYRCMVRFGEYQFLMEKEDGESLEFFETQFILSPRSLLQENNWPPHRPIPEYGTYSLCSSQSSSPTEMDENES

Variants of B1 are the subject of the first test. Particulars: with fnd11_human FNDC11, Q9BVV2.
Consider MAQHDFAPAWLNFPTPPSSTKSSLNFEKHSENFAWTENRYDVNRRRHNSSDGFDSAIGRPNGGNFGRKEKNGWRTHGRNGTENINHRGGYHGGSSRSRSSIFHAGKSQGLHENNIPDNETGRKEDKRERKQFEAEDFPSLNPEYEREPNHNKSLAAGVWEYPPNPKSRAPRMLVIKKGNTKDLQLSGFPVVGNLPSQPVKNGTGPSVYKGLVPKPAAPPTKPTQWKSQTKENKVGTSFPHESTFGVGNFNAFKSTAKNFSPSTNSVKECNRSNSSSPVDKLNQQPRLTKLTQMRTDKKSEFLKALKRDRVEEEHEDESRAGSEKDDDSFNLHNSNSTHQERDINRNFDENEIPQENGNASVISQQIIRSSTFPQTDVLSSSLEAEHRLLKEMGWQEDSENDETCAPLTEDEMREFQVISEQLQKNGLRKNGILKNGLICDFKFGPWKNSTFKPTTENDDTETSSSDTSDDDDV [R292Q], for which the “effect of a mutation on the interaction” value is “with no effect”.

Variants of B1 are the subject of the next test. Particulars: with fnd11_human FNDC11, Q9BVV2. The source holds these as a separate data set.
On to MAQHDFAPAWLNFPTPPSSTKSSLNFEKHSENFAWTENRYDVNRRRHNSSDGFDSAIGRPNGGNFGRKEKNGWRTHGRNGTENINHRGGYHGGSSRSRSSIFHAGKSQGLHENNIPDNETGRKEDKRECKQFEAEDFPSLNPEYEREPNHNKSLAAGVWEYPPNPKSRAPRMLVIKKGNTKDLQLSGFPVVGNLPSQPVKNGTGPSVYKGLVPKPAAPPTKPTQWKSQTKENKVGTSFPHESTFGVGNFNAFKSTAKNFSPSTNSVKECNRSNSSSPVDKLNQQPRLTKLTRMRTDKKSEFLKALKRDRVEEEHEDESRAGSEKDDDSFNLHNSNSTHQERDINRNFDENEIPQENGNASVISQQIIRSSTFPQTDVLSSSLEAEHRLLKEMGWQEDSENDETCAPLTEDEMREFQVISEQLQKNGLRKNGILKNGLICDFKFGPWKNSTFKPTTENDDTETSSSDTSDDDDV [R129C], for which the “effect of a mutation on the interaction” value is listed as “with no effect”.

The variants in another test derive from B2. Particulars: with tri39_human TRIM39, Q9HCM9.
As for MGGCVGAQHDSSGSLNENSEGTGVALGRNQPLKKEKPKWKSDYPMTDGQLRSKRDEFWDTAPAFEGRKEIWDALKAAAHAFESNDHELAQAIIDGANITLPHGALTECYDELGNRYQLPVYCLAPPINMIEEKSDIETLDIPEPPPNSGYECQLRLRLSTGKDLKLVVRSTDTVFHMKRWLHAAEGVEPGSQRWFFSGRPLTDKMKFEELKIPKDYVVQVIVSQPVQNPTPVEN [R180W], the “effect of a mutation on the interaction” value is “with no effect”.

The next test covers variants of B3. Particulars: with rai2_human RAI2, Q9Y5P3.
As to MSSIKHLVYAVIRFLREQSQMDTYTSDEQESLEVAIQCLETVFKISPEDTHLAVSQPLTEMFTSSFCKNDVLPLSNSVPEDVGKADQLKDEGNNHMKEENYAAAVDCYTQAIELDPNNAVYYCNRAAAQSKLGHYTDAIKDCEKAIAIDSKYSKAYGRMGLALTALNKFEEAVTSYQKALDLDPENDSYKSNLKIAEQKLREVSSPTGTGLSFDMASLINNPAFISMAASLMQNPQVQQLMSGMMTNAIGGPAAGVGGLTDLSSLIQAGQQFAQQIQQQNPELIEQLRNHIWSRSFSSSAEEHS [R292W], the “effect of a mutation on the interaction” value is “with no effect”.

The variants in another test derive from B4. Particulars: with ubp10_human USP10, Q14694.
Sequence of ubp10_human USP10, Q14694 (Q14694 whole entry): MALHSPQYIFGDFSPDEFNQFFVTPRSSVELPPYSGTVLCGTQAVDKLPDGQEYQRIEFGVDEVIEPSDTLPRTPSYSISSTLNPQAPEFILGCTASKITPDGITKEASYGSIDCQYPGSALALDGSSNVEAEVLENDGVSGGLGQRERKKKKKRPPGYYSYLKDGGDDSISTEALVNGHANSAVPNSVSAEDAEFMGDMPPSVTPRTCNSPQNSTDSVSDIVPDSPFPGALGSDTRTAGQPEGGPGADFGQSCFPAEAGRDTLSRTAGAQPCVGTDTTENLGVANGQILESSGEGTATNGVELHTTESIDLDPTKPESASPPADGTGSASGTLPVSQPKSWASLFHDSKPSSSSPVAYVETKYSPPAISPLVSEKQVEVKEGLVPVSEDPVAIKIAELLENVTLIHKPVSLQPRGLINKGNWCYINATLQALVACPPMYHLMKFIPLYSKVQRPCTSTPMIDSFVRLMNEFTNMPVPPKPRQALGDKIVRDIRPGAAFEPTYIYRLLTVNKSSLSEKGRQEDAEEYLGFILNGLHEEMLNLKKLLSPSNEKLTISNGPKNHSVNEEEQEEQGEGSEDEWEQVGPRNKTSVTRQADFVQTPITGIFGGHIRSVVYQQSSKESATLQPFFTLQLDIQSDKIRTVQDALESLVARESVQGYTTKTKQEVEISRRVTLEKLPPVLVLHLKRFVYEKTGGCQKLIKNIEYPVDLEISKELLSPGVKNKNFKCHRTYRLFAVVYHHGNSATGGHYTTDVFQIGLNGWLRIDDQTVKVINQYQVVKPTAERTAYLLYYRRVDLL
Consider MVMEKPSPLLVGREFVRQYYTLLNKAPEYLHRFYGRNSSYVHGGVDASGKPQEAVYGQNDIHHKVLSLNFSECHTKIRHVDAHATLSDGVVVQVMGLLSNSGQPERKFMQTFVLAPEGSVPNKFYVHNDMFRYEDEVFGDSEPELDEESEDEVEEEQEERQPSPEPVQENANSGYYEAHPVTNGIEEPLEESSHEPEPEPESETKTEEPKPQVEEKNLEELEEKSTTPPPAEPVSLPQEPPKAFSWASVTSKNLPPSGTVSSSGIPPHVKAPVSQPRVEAKPEVQSQPPRVREQRPRERPGFPPRGPRPGRGDMEQNDSDNRRIIRYPDSHQLFVGNLPHDIDENELKEFFMSFGNVVELRINTKGVGGKLPNFGFVVFDDSEPVQRILIAKPIMFRGEVRLNVEEKKTRAARERETRGGGDDRRDIRRNDRGPGGPRGIVGGGMMRDRDGRGPPPRGGMAQKLGSGRGTGQMEGRFTGQRR [L209P], for which the “effect of a mutation on the interaction” value is listed as “with no effect”.

In a further test the parent is B5. Particulars: with tifa_human TIFA.
On to E295K, for which the “effect of a mutation on the interaction” value is listed as “disrupting interaction strength”.
